Stoichiometry N data for 1 molecule are collected here from paper PMC6778039.

The term stoichiometry N denotes the number of molecules, sites or subunits per partner or assembly.

This assay concerns the target T1, ^35S-IRF3, Q14653.
T1 chain: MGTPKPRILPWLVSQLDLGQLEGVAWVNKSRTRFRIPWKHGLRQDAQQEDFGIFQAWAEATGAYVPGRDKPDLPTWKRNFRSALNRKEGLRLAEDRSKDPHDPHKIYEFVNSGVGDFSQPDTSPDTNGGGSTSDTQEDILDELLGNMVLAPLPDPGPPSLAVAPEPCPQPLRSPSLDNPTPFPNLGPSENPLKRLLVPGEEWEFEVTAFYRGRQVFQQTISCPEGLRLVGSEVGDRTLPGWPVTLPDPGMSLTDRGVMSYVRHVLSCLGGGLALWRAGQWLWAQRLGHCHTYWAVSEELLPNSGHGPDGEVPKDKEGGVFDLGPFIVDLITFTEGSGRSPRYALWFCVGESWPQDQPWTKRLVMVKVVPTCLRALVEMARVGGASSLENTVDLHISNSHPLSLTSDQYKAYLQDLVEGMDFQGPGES
Kind of assay: native gel or EMSA. The settings on record: remark: other sources report otherwise. (In EMSA bound probe runs differently from free probe, usually more slowly.)

B1: ^35S-IRF3, Q14653 1-427 (natural protein)
chain: T1 chain
modifications: here or on the partner: 35S label; 35S label
With B1, the stoichiometry N stood at 2.
